Measurements taken from the supplement of paper PMC10567573.

B1: FBF1 (parent)
chain: YQRPQDSEDMWGDEDFTFGAYQPT

Variants of: B1
Test: protein stability index of a GFP-peptide fusion (GPS, HEK-293T) (PSI 1-6); higher = more stable
Conditions: c terminus: a fixed tail appended
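Note: lentivirally expressed fusions sorted by FACS into six bins by GFP to DsRed ratio, PSI derived from sequencing read proportions per bin multiplied by bin number.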

Compared with YQAPQDSEDMWGDEDFTFGAYQPT, YQVPQDSEDMWGDEDFTFGAYQPT is higher in protein stability index: 3.44 for the first, 3.5 for the second.

Going from YQYPQDSEDMWGDEDFTFGAYQPT to YQPPQDSEDMWGDEDFTFGAYQPT, the protein stability index rises from 3.09 to 3.87.

Going from YQNPQDSEDMWGDEDFTFGAYQPT to YQSPQDSEDMWGDEDFTFGAYQPT, the protein stability index falls from 3.71 to 3.11.

First: YQTPQDSEDMWGDEDFTFGAYQPT
Second: YQEPQDSEDMWGDEDFTFGAYQPT
The protein stability index of the first is lower: 2.62 for the first, 4.79 for the second.

Compared with YQFPQDSEDMWGDEDFTFGAYQPT, YQKPQDSEDMWGDEDFTFGAYQPT is higher in protein stability index: 3.12 for the first, 3.64 for the second.

Compared with YQMPQDSEDMWGDEDFTFGAYQPT, YQIPQDSEDMWGDEDFTFGAYQPT is lower in protein stability index: 3.2 for the first, 2.87 for the second.

Going from YQLPQDSEDMWGDEDFTFGAYQPT to YQQPQDSEDMWGDEDFTFGAYQPT, the protein stability index rises from 3.46 to 4.01.

Compared with YQWPQDSEDMWGDEDFTFGAYQPT, YQCPQDSEDMWGDEDFTFGAYQPT is higher in protein stability index: 2.82 for the first, 3.12 for the second.

First: YQHPQDSEDMWGDEDFTFGAYQPT
Second: YQDPQDSEDMWGDEDFTFGAYQPT
The protein stability index of the first is lower: 3.49 for the first, 4.36 for the second.

Going from YQGPQDSEDMWGDEDFTFGAYQPT to YQRIQDSEDMWGDEDFTFGAYQPT, the protein stability index falls from 3.4 to 2.68.

Going from YQRFQDSEDMWGDEDFTFGAYQPT to YQRAQDSEDMWGDEDFTFGAYQPT, the protein stability index falls from 2.54 to 2.45.

Going from YQRLQDSEDMWGDEDFTFGAYQPT to YQRYQDSEDMWGDEDFTFGAYQPT, the protein stability index rises from 2.74 to 3.04.

Going from YQRTQDSEDMWGDEDFTFGAYQPT to YQRHQDSEDMWGDEDFTFGAYQPT, the protein stability index rises from 2.57 to 2.97.

Compared with YQRSQDSEDMWGDEDFTFGAYQPT, YQRWQDSEDMWGDEDFTFGAYQPT is lower in protein stability index: 2.54 for the first, 2.09 for the second.

First: YQRDQDSEDMWGDEDFTFGAYQPT
Second: YQRGQDSEDMWGDEDFTFGAYQPT
The protein stability index of the first is higher: 3.39 for the first, 2.69 for the second.

YQRNQDSEDMWGDEDFTFGAYQPT and YQRRQDSEDMWGDEDFTFGAYQPT are the same in protein stability index: 2.26 for the first, 2.26 for the second.

Going from YQRCQDSEDMWGDEDFTFGAYQPT to YQRKQDSEDMWGDEDFTFGAYQPT, the protein stability index falls from 2.7 to 2.29.

Compared with YQRVQDSEDMWGDEDFTFGAYQPT, YQRQQDSEDMWGDEDFTFGAYQPT is higher in protein stability index: 2.49 for the first, 2.54 for the second.

Compared with YQREQDSEDMWGDEDFTFGAYQPT, YQRMQDSEDMWGDEDFTFGAYQPT is lower in protein stability index: 3.56 for the first, 2.74 for the second.

First: AQRPQDSEDMWGDEDFTFGAYQPT
Second: RQRPQDSEDMWGDEDFTFGAYQPT
The protein stability index of the first is higher: 4.84 for the first, 3.94 for the second.

First: DQRPQDSEDMWGDEDFTFGAYQPT
Second: VQRPQDSEDMWGDEDFTFGAYQPT
The protein stability index of the first is higher: 4.87 for the first, 3.92 for the second.

First: QQRPQDSEDMWGDEDFTFGAYQPT
Second: TQRPQDSEDMWGDEDFTFGAYQPT
The protein stability index of the first is lower: 4.23 for the first, 4.66 for the second.

Going from CQRPQDSEDMWGDEDFTFGAYQPT to KQRPQDSEDMWGDEDFTFGAYQPT, the protein stability index rises from 3.54 to 4.24.

Going from WQRPQDSEDMWGDEDFTFGAYQPT to GQRPQDSEDMWGDEDFTFGAYQPT, the protein stability index rises from 3.93 to 4.79.

First: IQRPQDSEDMWGDEDFTFGAYQPT
Second: MQRPQDSEDMWGDEDFTFGAYQPT
The protein stability index of the first is lower: 3.95 for the first, 4.6 for the second.

Going from EQRPQDSEDMWGDEDFTFGAYQPT to PQRPQDSEDMWGDEDFTFGAYQPT, the protein stability index falls from 4.84 to 4.71.

First: HQRPQDSEDMWGDEDFTFGAYQPT
Second: FQRPQDSEDMWGDEDFTFGAYQPT
The protein stability index of the first is higher: 4.76 for the first, 2.58 for the second.

Going from NQRPQDSEDMWGDEDFTFGAYQPT to SQRPQDSEDMWGDEDFTFGAYQPT, the protein stability index falls from 4.62 to 4.52.

Compared with LQRPQDSEDMWGDEDFTFGAYQPT, YQRPSDSEDMWGDEDFTFGAYQPT is lower in protein stability index: 3.87 for the first, 2.98 for the second.

Going from YQRPWDSEDMWGDEDFTFGAYQPT to YQRPNDSEDMWGDEDFTFGAYQPT, the protein stability index rises from 2.03 to 3.03.

Compared with YQRPADSEDMWGDEDFTFGAYQPT, YQRPTDSEDMWGDEDFTFGAYQPT is higher in protein stability index: 2.49 for the first, 3.18 for the second.

First: YQRPKDSEDMWGDEDFTFGAYQPT
Second: YQRPLDSEDMWGDEDFTFGAYQPT
The protein stability index of the first is lower: 2.01 for the first, 2.09 for the second.

Going from YQRPVDSEDMWGDEDFTFGAYQPT to YQRPPDSEDMWGDEDFTFGAYQPT, the protein stability index falls from 2.56 to 2.52.

Going from YQRPDDSEDMWGDEDFTFGAYQPT to YQRPMDSEDMWGDEDFTFGAYQPT, the protein stability index falls from 3.79 to 2.44.

Going from YQRPHDSEDMWGDEDFTFGAYQPT to YQRPCDSEDMWGDEDFTFGAYQPT, the protein stability index falls from 2.44 to 2.26.

Going from YQRPGDSEDMWGDEDFTFGAYQPT to YQRPEDSEDMWGDEDFTFGAYQPT, the protein stability index rises from 2.99 to 3.76.

Compared with YQRPFDSEDMWGDEDFTFGAYQPT, YQRPRDSEDMWGDEDFTFGAYQPT is lower in protein stability index: 2.64 for the first, 2.16 for the second.

Going from YQRPIDSEDMWGDEDFTFGAYQPT to YDRPQDSEDMWGDEDFTFGAYQPT, the protein stability index rises from 2.26 to 4.81.

Compared with YYRPQDSEDMWGDEDFTFGAYQPT, YERPQDSEDMWGDEDFTFGAYQPT is higher in protein stability index: 3.65 for the first, 4.26 for the second.

First: YNRPQDSEDMWGDEDFTFGAYQPT
Second: YKRPQDSEDMWGDEDFTFGAYQPT
The protein stability index of the first is lower: 3.14 for the first, 3.81 for the second.

Compared with YARPQDSEDMWGDEDFTFGAYQPT, YSRPQDSEDMWGDEDFTFGAYQPT is higher in protein stability index: 2.79 for the first, 3.53 for the second.

Compared with YFRPQDSEDMWGDEDFTFGAYQPT, YMRPQDSEDMWGDEDFTFGAYQPT is higher in protein stability index: 3.25 for the first, 3.56 for the second.

First: YGRPQDSEDMWGDEDFTFGAYQPT
Second: YCRPQDSEDMWGDEDFTFGAYQPT
The protein stability index of the first is higher: 3.76 for the first, 2.7 for the second.

First: YVRPQDSEDMWGDEDFTFGAYQPT
Second: YTRPQDSEDMWGDEDFTFGAYQPT
The protein stability index of the first is lower: 1.78 for the first, 3.54 for the second.

Compared with YHRPQDSEDMWGDEDFTFGAYQPT, YPRPQDSEDMWGDEDFTFGAYQPT is higher in protein stability index: 2.21 for the first, 3.05 for the second.

First: YIRPQDSEDMWGDEDFTFGAYQPT
Second: YWRPQDSEDMWGDEDFTFGAYQPT
The protein stability index of the first is lower: 2.08 for the first, 2.38 for the second.

First: YRRPQDSEDMWGDEDFTFGAYQPT
Second: YLRPQDSEDMWGDEDFTFGAYQPT
The protein stability index of the first is higher: 3.83 for the first, 3.45 for the second.
